assay: soluble on expression in E. coli; label from the status in PepcDB or PDB records

Row | Sequence | soluble on expression in E. coli
1 | MSLGMKSNEYNKGNYEAHKAYYAGTYEYGTDYDVEDDLYSLEFDDELLNDELEYLEDIGEPFYYEDLDNDFDNTLENQVEKDTYAALENKLRKYISKYNCYFGIYFVDLESGKEFGINDTEEFFAASTFKIPLNLYVYDMIRKGMLDPMTSLEYTEEDFEGGTGIIWNNESFGKTFTIKELLRLSIVYSDNVAVNMLLRCVGKANVKEYMRRLGGVVVDDGKNVSCPRDMAMYLKEVYELSENGDPWGRELVQNMINTKFYDRLPVLLPKNLKIAHKTGNYTGVVHDVGIVYAEKPYIVVVMTKNVKNGQSANKAIANISKMIYDYVVKQSGKDEGHHHHHH | soluble
2 | MSLGNSRSRVGRSFCSQFLPEEQAEIDQLFDALSSDKNSPNVSSKSFSLKALQNHVGEALPPEMVTRLYDGMRRVDLTGKAKGPSENVSQEQFTASMSHLLKGNSEEKSLMIMKMISATEGPVKAREVQKFTEDLVGSVVHVLSHRQELRGWTGKEAPGPNPRVQVLAAQLLSDMKLQDGKRLLGPQWLDYDCDRAVIEDWVFRVPHVAIFLSVVICKGFLVLCSSLDLTTLVPERQVDQGRGFESILDVLSVMYINAQLPREQRHRWRLLFSSVLHGHSFSQLCGHITHRGPCVAVLEDHDKHVFGGFASCSWEVKPQFQGDNRCFLFSICPSMAVYTHTGYNDHYMYLNHGQQTIPNGLGMGGQHNYFGLWVDVDFGKGHSRAKPTCTTYNSPQLSAQENFQFDKMEVWAVGDPSEEQLAKGNKSILDADPEAQALLEISGHSRHSEGLREVPDDEGHHHHHH | soluble
3 | MSLGSNKTIIINLNNLEHNLNLIKNKIGEKEIVATLKGDAYGHGLINIFKFLKSKNINYFGLSNIEDAKTLKKIDKNIKILMYIKVDKKEIKNLIKFELVPFVSDFEYLFLIEKECALQKNKIKVHLKIDIGMNRYGIKIDDALEIATYIQNSKFLELEGICSHLPSIENFKTTQKQIEQFLFFLETLKQKNIHPKFVHISNSGHIINYKLNPQFNMVRPGLILYGYCQSEGHHHHHH | not soluble
4 | MSLGTLASLHLNSGDAHHKQRTVTILEFSSSLKLVYKPRSLKVDGVFNGLLAFLNDRTGEVIKDQYCPKVLQRDGYGYVEFVTHQSCQSLEEVSDFYERLGSLMSLSYVLNSSDFHFENIIAHGPYPVLIDLETIIHNTADSSEETSTAMDRAFRMLNDSVLSTGMLPSSIYYRDQPNMKGLNVGGVSKSEGQKTPFKVNQIANRNTDEMRIEKDHVTLSSQKNLPIFQSAAMESVHFLDQIQKGFTSMYQWIEKNKQEFKEQVRKFEGVPVRAVLRSTTRYTELLKSSYHPDLLRSALDREVLLNRLTVDSVMTPYLKEIIPLEVEDLLNGDVPYFYTLPEERALYQEASAINSTFFTTSIFHKIDQKIDKLGIEDHTQQMKILHMSMLASNANHYADVADLEGHHHHHH | not soluble
5 | MSLGTMSTEATLLERCQSQCELCAASTPLSPFVVAPHALVTVDHAVMLCDTCKGQIENPETVDMNHWRCLNDSMWSQVQPVQVLAWRQLKRISETEGWARDLLDMMYLDEETAKWAEIGMDDDAEKPRDVNGVELKKGDDVTVIKDLPVKGSSMVIKQGTAVRGIALTEDPKHIQGKVNGQTMYIIAEYCRKKEGGSHHHHHH | soluble
6 | MSLGTSYSEGVSSIHMVKGERGSNNLELTSESLSSTNDTIRRLQRDLLFLQNELRFEKFVRQQHLQNIGKLHREHILDMAVESERQKLLLTNKRYKAQIELLNSEIDKHRSESQAALNRRVKWENDFNNKIKALREEKKAWKSEESELKSSIESLISQLESIRNSQIDIAFSKNQLELKLQLYETKLKEYEQHLSCVNISKKQVSSSSDTSFGNTKMDSSMILSNSEAVSDEQERELIESEKHRMKLESENLHLQANIELLKKDLEAINVVYEAKIFDLEKRLSSEANAPELHNPVNLNYDAQLSKISEIKENYDELLTRYRELEGKFLESQAEVEELKNFQKPLVDTGSSIHSSPGLQEGHHHHHH | soluble
7 | MSLHDLLMIDGLQYSNWSQDIFQQMQAGGLSAVHATIAYHENARETLSRLGEWNRRFETWPELIRPVRTASDIRLAHEEGRVGIFFGFQNCSPIEDDIALVEVFRQLGVFVMQLTYNNQSLLASGCYEREDNGISRFGRQVIAEMNRVGMLIDMSHSAERSTLEAIELSSRPVIISHANPASFHAAKRNKSDAVLRGIAESGGLLGFSTYPFHLKGASDCSLESFCDMVARTADLMGVEHIGIGTDLCQAQPLSVLEWMRNGRWSKDKDYGEGSRDNANWPAPLQWFRDSRDLRNIAQGLRARGFAEHDVGNIMGLNWLRLLETATTAQAEGHHHHHH | soluble
8 | MSLHRFQYKAYRRSFAGTFANARESFAKREGLMIRLEDRDGRVGFGEVAPIVSFGSESFASAFSVAESLGEQVAFERVLPELAGYPCLRWACESALDMIAREGVWEELEKPWPICGLVADLGDLASVEEKLGMHYQCLKFKIGKKSLIEELKALDRVIELSEGKVQIRLDANGTLDMRTAIGWLERVAGLPVEFIEQPLPVGAEVEMRRLSADFPTLLALDESVDSVDDLKRWRDQQWPGLYVIKPSLSGSLLALGEELSGGAGDCVFSSSLETKIGESNAIGFAIRQSGHGRALGFGVERLFADRNVGLELGPFLQKGGLASSDDLESLWNLTEGHHHHHH | soluble
9 | MSLICKRFALVGSGFIGQVHAASLARHEGSALTMVADAAPERAQALAARYGARAVTVSEAIHSDAIDAVLIASSTPSHAELLEAAARAGKAVYCEKPIDLSLARAREVVERVLPLNVPVTVGFNRRFDSSHQQLRRQLEQGLIGRVELVQMVCRASSMPPLDYLRSSGGQMRDQAIHFFDLLRFLTGDEVRTVAAMGAALALPDIAEFGDVDTSILMMQMRGGALAQLDNTRRTGHGYDERITLLGAEGALESGSQSPAGPTLWRGNQRIEPGLWPDWFSRVQGSYYQHLDAFIRSLNGETVADLPGLLDGLQAQAIAEAAVQSLQHGQFVAVDDEGHHHHHH | soluble
10 | MSLIDKTKLLQNFQFHLPTGYHKESLARLNFMKGKPLRDAAVLIGFVDRPEGLQVILTKRAEHLRHHPGQISFPGGKFEPEDIHLVNTALRETNEEVGIEDKHIHVFGQLPKLPTISQFNVTPFLAFISPDYKTHIDPNEVESVFEVPANHILNPNKLYSSKFELKRSSHRVFAIPYRQHFIWGMTAQIIESMQKHIISGEGHHHHHH | soluble
11 | MSLIIPEKFQHIHRVMNTNIDGNRKVPYALTAIKGVGRRFAFVCCRKADVDVNKRAGELTEEDFDKIVTIMQNPSQYKIPNWFLNRQKDIKDGKTGQLLSTAVDNKLREDLERMKKIRLHRGLRHYWGLRVRGQHTKTTGRKGRTVGVSKKKGG | not soluble
12 | MSLILRWGIIGPGWIAERFVHSLKTYSRQQVVAVASRSQAKADRVAAEWGIPQAYGQVEEMLARPDIDAVYIATPHNHHFPDGMQALKAGKHVLIEKPFALNLGEGRELQAEAARQEKLALEAMWCDYAPKYDVIRQLLEDGALGDLHTLLADHGEYFTRDHRIFNADLAGGPMMDLGSYVTSFALMVGGMPQEIVARGSATAEGLNGQTSMLFSWQNGMQGLLNTTLFSNTPGGAVVAGRQATLTIDGQFYAPGGFTLAASQGGQVLRWEEPRNRYDQLFWQAEHFAWCIGQGLQDSPLRPLSRVLQNLQVMDEVRRQVGAVFNEEREGHHHHHH | not soluble
13 | MSLILVYSTFPNEEKALEIGRKLLEKRLIACFNAFEIRSGYWWKGEIVQDKEWAAIFKTTEEKEKELYEELRKLHPYETPAIFTLKVENVLTEYMNWLRESVLEGGSHHHHHH | soluble
14 | MSLINTQRLVDHFLQLIQIDSESGNEKKIAETLAEQLGELGFTVHKLPVPAEVSNGFNLYARLEGTLNDSILFSCHMDTVKPGIGIEPVIEDGIIRSKGNTILGGDDKSGIAAILEAVRVLRDSQQAHKTIEIAFTVHEEGGLKGSEHFDMSKVQAEKAIVLDTGGPIGTIVRAAPGQQKIVALIKGKPAHAGLVPEDGISAIAVAADAITQMKLLRIDEETTANIGIVQGGQATNIVMPELKIVAEARSLNDAKLEAQVQHMIETFERAAEKHGATVEIESTRAYNAFKLEEDNAHIQAIKASFETIGIEPKTKLSGGGSDANNFNAKGLTTVNLSTGMAKVHTTEEYIAIADMVKIAEFVCAYTTA | not soluble

Reference: the DeepSol protein solubility set
